In the Human Domainome abundance scans (Beltran et al. 2025):
± gives the uncertainty stated by the source.

B1: POU domain, class 2, transcription factor 1, residues 285 to 354; numbered along this chain, P14859 (parent)
chain: LEELEQFAKTFKQRRIKLGFTQGDVGLAMGKLYGNDFSQTTISRFEALNLSFKNMCKLKPLLEKWLNDAE

Variants of: B1
Assay: abundance fitness (aPCA) (normalised: wild type 0, dead -1); higher = more abundant; growth selection in yeast, the domain comes from the species named
Details: Homo sapiens

Variant	abundance fitness
L1Y	0.13 ± 0.15
F7L	-0.297 ± 0.14
F7A	-0.355 ± 0.18
F7S	-0.324 ± 0.088
F7R	-0.437 ± 0.11
F7I	-0.298 ± 0.17
F7M	-0.263 ± 0.26
F7V	0.191 ± 0.27
F7C	-0.011 ± 0.13
F7G	-0.07 ± 0.28
F7W	0.123 ± 0.29
E3Q	-0.078 ± 0.034
E3R	-0.207 ± 0.036
E3S	-0.105 ± 0.024
E3I	-0.117 ± 0.063
E3V	-0.118 ± 0.033
E3F	-0.159 ± 0.039
E3C	-0.202 ± 0.046
E3P	-0.569 ± 0.043
E3N	-0.07 ± 0.078
E3W	-0.305 ± 0.042
E3A	-0.143 ± 0.05
E3M	-0.089 ± 0.027
E3G	-0.201 ± 0.063

Variant	abundance fitness
E3Y	-0.186 ± 0.047
E3T	-0.146 ± 0.031
E3H	-0.036 ± 0.044
E3K	-0.137 ± 0.035
F11C	-0.11 ± 0.045
F11W	-0.105 ± 0.027
F11A	-0.166 ± 0.029
F11E	-1.12 ± 0.12
F11N	-1.09 ± 0.093
F11I	-0.402 ± 0.048
F11D	-1.19 ± 0.48
F11G	-0.848 ± 0.034
F11K	-1.09 ± 0.15
F11M	-0.166 ± 0.037
F11S	-0.206 ± 0.035
F11Q	-1.11 ± 0.16
F11Y	-0.238 ± 0.12
F11L	-0.147 ± 0.023
F11V	-0.239 ± 0.024
F11R	-0.955 ± 0.042
F11P	-1.04 ± 0.1
Q13M	-0.024 ± 0.022
Q13S	-0.005 ± 0.027
Q13T	0.023 ± 0.037

Variant	abundance fitness
Q13W	-0.188 ± 0.035
Q13C	-0.235 ± 0.089
Q13K	0.042 ± 0.056
Q13I	-0.121 ± 0.07
Q13H	0.015 ± 0.11
Q13A	-0.02 ± 0.093
Q13E	-0.01 ± 0.057
Q13V	-0.014 ± 0.023
Q13P	-0.202 ± 0.065
Q13R	-0.061 ± 0.042
Q13N	-0.049 ± 0.14
Q13L	-0.005 ± 0.017
Q13F	-0.054 ± 0.05
Q6V	-0.076 ± 0.031
Q6P	-0.245 ± 0.031
Q6G	-0.012 ± 0.051
Q6E	0.034 ± 0.055
Q6Y	-0.03 ± 0.05
Q6W	-0.058 ± 0.032
Q6D	-0.086 ± 0.09
Q6K	0.034 ± 0.03
Q6I	-0.009 ± 0.051
Q6A	0.015 ± 0.049
Q6L	-0.031 ± 0.019

Variant	abundance fitness
Q6M	-0.038 ± 0.021
Q6H	-0.001 ± 0.025
Q6F	-0.059 ± 0.041
Q6N	0.074 ± 0.071
Q6S	-0.017 ± 0.026
Q6T	0.025 ± 0.04
K12G	-0.146 ± 0.027
K12F	-0.307 ± 0.032
K12Y	-0.157 ± 0.033
K12T	-0.012 ± 0.03
K12H	-0.084 ± 0.039
K12A	0.006 ± 0.026
K12E	-0.046 ± 0.036
K12M	-0.062 ± 0.032
K12V	-0.05 ± 0.024
K12I	-0.007 ± 0.04
K12C	-0.041 ± 0.028
K12R	0.015 ± 0.033
K12N	-0.107 ± 0.038
K12S	-0.044 ± 0.024
K12W	-0.364 ± 0.033
K12P	-0.085 ± 0.049
K12L	-0.156 ± 0.02
K9R	0.011 ± 0.015

Variant	abundance fitness
E5I	-0.1 ± 0.08
E5M	-0.028 ± 0.037
E5D	-0.072 ± 0.05
E5G	-0.019 ± 0.021
E5Y	-0.071 ± 0.054
E5C	-0.114 ± 0.037
E5Q	-0.125 ± 0.053
E5K	-0.017 ± 0.04
E5S	-0.039 ± 0.031
E5L	-0.022 ± 0.022
E5H	-0.116 ± 0.077
E5N	-0.059 ± 0.059
E5R	-0.034 ± 0.024
E5T	-0.004 ± 0.041
E5F	-0.13 ± 0.046
E5A	-0.022 ± 0.026
E5P	-0.571 ± 0.075
L4F	-0.483 ± 0.16
L4V	-0.145 ± 0.14
L4S	-0.263 ± 0.21
L4M	-0.022 ± 0.23
T10K	-0.014 ± 0.037
T10N	0.004 ± 0.065
T10M	-0.052 ± 0.029

Variant	abundance fitness
T10Q	-0.012 ± 0.04
T10S	-0.027 ± 0.025
T10C	-0.041 ± 0.036
T10I	0.01 ± 0.061
T10L	-0.013 ± 0.019
T10G	-0.047 ± 0.026
T10H	0.019 ± 0.063
T10V	-0.059 ± 0.02
T10F	0.023 ± 0.039
T10P	-0.945 ± 0.073
T10Y	-0.063 ± 0.06
T10R	-0.038 ± 0.026
T10E	0.04 ± 0.041
T10D	-0.08 ± 0.059
A8H	-0.499 ± 0.064
A8P	-0.447 ± 0.031
A8S	-0.082 ± 0.03
A8V	0.01 ± 0.028
A8R	-0.154 ± 0.021
A8Q	-0.283 ± 0.045
A8M	-0.205 ± 0.042
A8D	-0.968 ± 0.13
A8C	-0.05 ± 0.038
A8I	-0.008 ± 0.054

Variant	abundance fitness
A8T	0.004 ± 0.033
A8N	-0.625 ± 0.14
A8W	-0.528 ± 0.041
A8F	-0.602 ± 0.063
A8L	-0.252 ± 0.029
A8K	-0.72 ± 0.076
E2M	-0.012 ± 0.026
E2K	0.053 ± 0.037
E2Y	-0.046 ± 0.057
E2T	-0.158 ± 0.032
E2N	0.109 ± 0.072
E2Q	-0.043 ± 0.037
E2G	-0.303 ± 0.1
E2I	-0.029 ± 0.06
E2R	-0.013 ± 0.03
E2F	-0.009 ± 0.036
E2H	-0.175 ± 0.057
E2D	-0.013 ± 0.17
E2P	-0.178 ± 0.039
E2S	-0.057 ± 0.031
E2C	-0.152 ± 0.051
E2V	-0.067 ± 0.045
E2W	-0.043 ± 0.029
